According to US7105327:

Target: plasminogen
Sequence (P00747 20-810): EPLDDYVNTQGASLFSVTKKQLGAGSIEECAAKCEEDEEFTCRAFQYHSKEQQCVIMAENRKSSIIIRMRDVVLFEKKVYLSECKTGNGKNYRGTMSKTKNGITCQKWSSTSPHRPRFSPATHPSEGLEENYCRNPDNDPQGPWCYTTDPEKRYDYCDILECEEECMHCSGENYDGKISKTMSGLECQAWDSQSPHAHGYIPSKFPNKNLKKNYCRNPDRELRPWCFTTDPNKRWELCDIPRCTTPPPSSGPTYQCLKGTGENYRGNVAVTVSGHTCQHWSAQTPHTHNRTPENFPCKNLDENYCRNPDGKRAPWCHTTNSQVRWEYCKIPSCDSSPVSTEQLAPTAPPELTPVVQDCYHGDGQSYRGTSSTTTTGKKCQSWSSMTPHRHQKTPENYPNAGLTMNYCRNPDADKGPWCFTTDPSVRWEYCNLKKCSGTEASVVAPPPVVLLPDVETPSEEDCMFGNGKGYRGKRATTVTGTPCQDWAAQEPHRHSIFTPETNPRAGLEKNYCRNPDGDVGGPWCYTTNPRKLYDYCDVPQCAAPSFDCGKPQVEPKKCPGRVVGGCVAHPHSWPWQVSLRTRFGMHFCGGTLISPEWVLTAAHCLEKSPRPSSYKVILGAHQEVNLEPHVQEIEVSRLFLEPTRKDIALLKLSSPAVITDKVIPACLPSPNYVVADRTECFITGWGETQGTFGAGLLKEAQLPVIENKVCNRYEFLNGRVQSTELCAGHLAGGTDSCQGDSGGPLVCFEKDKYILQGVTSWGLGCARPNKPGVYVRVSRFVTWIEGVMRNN

B1: recombinant streptokinase from Streptococcus equisimilis (ATCC 9542) (protein)
chain: IAGPEWLLDRPSVNNSQLVVSVAGTVEGTNQDISLKFFEIDLTSRPAHGGKTEQGLSPKSKPFATDSGAMSHKLEKADLLKAIQEQLIANVHSNDDYFEVIDFASDATITDRNGKVYFADKDGSVTLPTQPVQEFLLSGHVRVRPYKEKPIQNQAKSVDVEYTVQFTPLNPDDDFRPGLKDTKLLKTLAIGDTITSQELLAQAQSILNKNHPGYTIYERDSSIVTHDNDIFRTILPMDQEFTYRVKNREQAYRINKKSGLNEEINNTDLISEKYYVLKKGEKPYDPFDRSHLKLFTIKYVDVDTNELLKSEQLLTASERNLDFRDLYDPRDKAKLLYNNLDAFGIMDYTLTGKVEDNHDDTNRIITVYMGKRPEGENASYHLAYDKDRYTEEEREVYSYLRYTGTPIPDNPNDK
- activity in two-stage plasminogen activation assay (plasmin assayed with H-D-Val-Leu-Lys-p-nitroanilide, A405): 97,500+/-2500 IU/mg protein
